{"source": "paper PMC8319299", "about": "“PALI1 facilitates DNA and nucleosome binding by PRC2 and triggers an allosteric activation of catalysis”", "key": {"PALI1 PIR": {"biological_target": "T1, PALI1 PIR (Homo sapiens, UniProt Q96JN0-3 1058-1250)", "T1 sequence": "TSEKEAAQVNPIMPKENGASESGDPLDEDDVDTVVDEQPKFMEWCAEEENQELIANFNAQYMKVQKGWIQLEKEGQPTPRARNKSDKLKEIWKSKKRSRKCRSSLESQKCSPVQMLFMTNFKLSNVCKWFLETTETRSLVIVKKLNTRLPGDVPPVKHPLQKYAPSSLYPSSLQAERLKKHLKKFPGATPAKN", "assay": "EMSA; 50 mM Tris-HCl pH 7.5 (25 C), 100 mM KCl, 2 mM 2-mercaptoethanol, 0.1 mg/mL BSA, 0.05% NP-40; FA at 30 C; nucleosome EMSA with 5% glycerol at 4 C (+5 ng/uL salmon sperm DNA for H2A-Cy5 probes); PALI1 PIR EMSA with 5% glycerol, binding at 30 C; probe 5 nM", "conditions": "protein: recombinant; tags: MBP removed by TEV; label: 3'-fluorescein; hairpin, 46 bp stem"}, "PRC2-PALI1 PIR": {"biological_target": "PRC2-PALI1 PIR (Homo sapiens, UniProt Q15910-2;O75530;Q15022;Q09028;Q96JN0-3 1-751;1-441;1-739;1-425;1058-1250)", "sequence (Q15910 other isoform, or with tags, fused parts or gaps, chain 1 of 4)": "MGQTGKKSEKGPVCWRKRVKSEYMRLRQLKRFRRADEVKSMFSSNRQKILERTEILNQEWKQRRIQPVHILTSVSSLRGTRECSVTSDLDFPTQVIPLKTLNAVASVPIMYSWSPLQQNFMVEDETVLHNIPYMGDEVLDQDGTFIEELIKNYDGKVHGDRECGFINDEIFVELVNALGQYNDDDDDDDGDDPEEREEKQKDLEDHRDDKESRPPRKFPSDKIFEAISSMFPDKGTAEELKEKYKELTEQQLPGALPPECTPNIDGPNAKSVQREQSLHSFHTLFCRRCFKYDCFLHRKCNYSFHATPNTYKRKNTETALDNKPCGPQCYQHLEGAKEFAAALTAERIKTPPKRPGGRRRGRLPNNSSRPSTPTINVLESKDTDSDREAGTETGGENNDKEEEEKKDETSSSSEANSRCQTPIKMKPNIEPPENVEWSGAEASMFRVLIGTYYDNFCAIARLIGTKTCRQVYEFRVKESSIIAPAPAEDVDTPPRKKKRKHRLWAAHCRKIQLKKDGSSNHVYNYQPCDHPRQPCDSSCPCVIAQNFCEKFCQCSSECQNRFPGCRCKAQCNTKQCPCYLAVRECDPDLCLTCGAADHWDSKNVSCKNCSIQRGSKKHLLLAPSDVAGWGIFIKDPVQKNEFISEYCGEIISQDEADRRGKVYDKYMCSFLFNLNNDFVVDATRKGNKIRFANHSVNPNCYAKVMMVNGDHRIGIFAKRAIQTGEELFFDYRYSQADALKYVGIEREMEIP", "sequence (O75530 whole entry, chain 2 of 4)": "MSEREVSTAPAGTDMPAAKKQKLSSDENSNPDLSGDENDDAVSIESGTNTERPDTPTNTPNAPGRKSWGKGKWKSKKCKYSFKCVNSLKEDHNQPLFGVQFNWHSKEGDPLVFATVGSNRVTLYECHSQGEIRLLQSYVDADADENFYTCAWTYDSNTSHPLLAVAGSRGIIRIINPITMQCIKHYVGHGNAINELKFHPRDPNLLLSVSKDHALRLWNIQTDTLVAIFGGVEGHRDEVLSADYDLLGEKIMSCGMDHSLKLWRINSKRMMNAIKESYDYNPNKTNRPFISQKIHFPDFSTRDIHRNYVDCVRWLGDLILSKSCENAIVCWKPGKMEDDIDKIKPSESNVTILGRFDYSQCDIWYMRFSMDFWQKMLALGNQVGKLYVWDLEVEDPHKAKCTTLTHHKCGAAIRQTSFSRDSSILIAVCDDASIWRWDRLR", "sequence (Q15022 whole entry, chain 3 of 4)": "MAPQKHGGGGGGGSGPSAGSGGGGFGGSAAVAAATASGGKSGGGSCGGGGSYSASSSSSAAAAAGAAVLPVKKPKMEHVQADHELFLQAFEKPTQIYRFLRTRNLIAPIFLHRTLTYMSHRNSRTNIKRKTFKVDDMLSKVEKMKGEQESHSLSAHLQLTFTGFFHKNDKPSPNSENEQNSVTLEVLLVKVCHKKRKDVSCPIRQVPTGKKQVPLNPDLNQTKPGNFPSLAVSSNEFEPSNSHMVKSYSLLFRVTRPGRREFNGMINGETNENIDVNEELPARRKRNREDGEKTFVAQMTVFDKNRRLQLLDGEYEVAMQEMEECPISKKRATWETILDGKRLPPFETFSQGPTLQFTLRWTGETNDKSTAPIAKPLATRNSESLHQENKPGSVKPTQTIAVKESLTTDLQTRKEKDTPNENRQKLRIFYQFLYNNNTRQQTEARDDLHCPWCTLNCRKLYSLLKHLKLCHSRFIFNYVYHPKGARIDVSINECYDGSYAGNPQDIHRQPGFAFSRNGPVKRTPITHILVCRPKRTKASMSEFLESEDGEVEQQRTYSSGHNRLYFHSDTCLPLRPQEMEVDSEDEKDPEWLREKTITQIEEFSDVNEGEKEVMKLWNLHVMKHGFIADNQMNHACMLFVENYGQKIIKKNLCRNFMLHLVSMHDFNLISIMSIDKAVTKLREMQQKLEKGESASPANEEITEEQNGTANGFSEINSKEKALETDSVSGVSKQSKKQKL", "sequence (Q09028 whole entry, chain 4 of 4)": "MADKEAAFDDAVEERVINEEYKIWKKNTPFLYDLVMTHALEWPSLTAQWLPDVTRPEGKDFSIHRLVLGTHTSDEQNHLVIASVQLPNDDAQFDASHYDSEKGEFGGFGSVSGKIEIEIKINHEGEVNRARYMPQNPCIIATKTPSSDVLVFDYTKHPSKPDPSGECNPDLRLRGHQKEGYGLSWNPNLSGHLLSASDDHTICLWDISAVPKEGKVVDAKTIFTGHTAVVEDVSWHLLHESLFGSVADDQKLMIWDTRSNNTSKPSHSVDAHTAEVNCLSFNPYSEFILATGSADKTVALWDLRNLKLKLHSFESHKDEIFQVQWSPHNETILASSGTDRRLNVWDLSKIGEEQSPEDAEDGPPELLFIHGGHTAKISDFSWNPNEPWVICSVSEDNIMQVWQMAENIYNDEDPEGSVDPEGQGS", "assay": "fluorescence anisotropy; 50 mM Tris-HCl pH 7.5 (25 C), 100 mM KCl, 2 mM 2-mercaptoethanol, 0.1 mg/mL BSA, 0.05% NP-40; FA at 30 C; nucleosome EMSA with 5% glycerol at 4 C (+5 ng/uL salmon sperm DNA for H2A-Cy5 probes); PALI1 PIR EMSA with 5% glycerol, binding at 30 C; probe 5 nM", "conditions": "protein: recombinant, tags: His6-MBP (PreScission-cleavable), copies: 1;1;1;1;1, label: 3'-fluorescein; for Kd: hairpin, 46 bp stem"}, "[1]": {"biological_target": "PRC2 core (EZH2-EED-SUZ12-RBBP4) (Homo sapiens, UniProt Q15910-2;O75530;Q15022;Q09028 1-751;1-441;1-739;1-425)", "sequence (Q15910 other isoform, or with tags, fused parts or gaps, chain 1 of 4)": "as the sequence (Q15910 other isoform, or with tags, fused parts or gaps, chain 1 of 4) above", "sequence (O75530 whole entry, chain 2 of 4)": "as the sequence (O75530 whole entry, chain 2 of 4) above", "sequence (Q15022 whole entry, chain 3 of 4)": "as the sequence (Q15022 whole entry, chain 3 of 4) above", "sequence (Q09028 whole entry, chain 4 of 4)": "as the sequence (Q09028 whole entry, chain 4 of 4) above", "assay": "fluorescence anisotropy; 50 mM Tris-HCl pH 7.5 (25 C), 100 mM KCl, 2 mM 2-mercaptoethanol, 0.1 mg/mL BSA, 0.05% NP-40; FA at 30 C; nucleosome EMSA with 5% glycerol at 4 C (+5 ng/uL salmon sperm DNA for H2A-Cy5 probes); PALI1 PIR EMSA with 5% glycerol, binding at 30 C; probe 5 nM", "conditions": "protein: recombinant; tags: His6-MBP (PreScission-cleavable); copies: 1;1;1;1; label: 3'-fluorescein; G4"}}, "data": [{"binder": "CpG46 (structured_DNA) DNA: GGCGCCCTGCCCCGCCTCGCTCTGGCAGAGTGGGGAGCCAGCCGGCGCTAGCCGGCTGGCTCCCCACTCTGCCAGAGCGAGGCGGGGCAGGGCGCC", "values": [{"measurement": "Kd", "setting": "PALI1 PIR", "value": "2300 ± 300", "unit": "nM"}, {"measurement": "Kd", "setting": "PRC2-PALI1 PIR", "value": "155 ± 26", "unit": "nM"}]}, {"binder": "CpG46 mt (structured_DNA) DNA: AATATTTCATTTTATTCTATCTCAATGAGACAAAAGATTGATTAATGCTAATTAATCAATCTTTTGTCTCATTGAGATAGAATAAAATGAAATATT", "values": [{"measurement": "Kd", "setting": "PRC2-PALI1 PIR", "value": "73.7 ± 10", "unit": "nM"}]}, {"binder": "UUAGGGUUAGGGUUAGGGUUAGGG (structured_RNA)", "note": "[G4 24 RNA]", "values": [{"measurement": "binding result", "setting": "PRC2-PALI1 PIR; G4", "value": "binds"}, {"measurement": "binding result", "setting": "[1]", "value": "binds"}]}]}
